Data as given in publication PMC10613254, “Mechanism of synergistic activation of Arp2/3 complex by cortactin and WASP-family proteins” (Nature Communications, 2023).

What was measured:
[1] = biological target: Arp3 (subunit of bovine Arp2/3 complex) (bovine, UniProt P61157 1-418); assay: cryo-EM structure; Bovine Arp2/3 complex (9.0 uM) mixed with Cort_(1-76) (45 uM) in ATP-supplemented KMEI buffer (10 mM imidazole pH 7.0, 50 mM KCl, 2 mM MgCl2, 1 mM EGTA, 0.2 mM ATP), 0.0025% NP-40; conditions: both partners purified
[2] = biological target: F-actin (skeletal α-actin, polymerized) (rabbit, UniProt P68135 1-377); assay: co-sedimentation; increasing concentrations of cortactin constructs with constant F-actin (4 uM), ATP-supplemented KMEI buffer, 1 h at RT, 30 min at 278,800 g, SDS-PAGE densitometry; conditions: both partners purified

Row | Binder | binding result [1] | binding result [2]
1 | Cort_(1-76), cortactin N-terminal acidic domain (NTA, residues 1-76) (domain or fragment, mouse cortactin, UniProt Q60598, residues 1-76; the methods say mouse cDNA; Cloned between BamHI and EcoRI of pMAL-c6T; also called cortactin's N-terminal domain; source: E. coli ArticExpress (DE3), purified (amylose, TEV cleavage, Ni-NTA, size exclusion)) MWKASAGHAVSITQDDGGADDWETDPDFVNDVSEKEQRWGAKTVQGSGHQEHINIHKLRENVFQEHQTLKEKELET | binds | –
2 | Cort_(1-227) (domain or fragment, source: E. coli ArticExpress (DE3), purified (amylose, TEV cleavage, Ni-NTA, size exclusion)) MWKASAGHAVSITQDDGGADDWETDPDFVNDVSEKEQRWGAKTVQGSGHQEHINIHKLRENVFQEHQTLKEKELETGPKASHGYGGKFGVEQDRMDRSAVGHEYQSKLSKHCSQVDSVRGFGGKFGVQMDRVDQSAVGFEYQGKTEKHASQKDYSSGFGGKYGVQADRVDKSAVGFDYQGKTEKHESQKDYSKGFGGKYGIDKDKVDKSAVGFEYQGKTEKHESQKD | – | binds

Next, values leading:

Row | binding result [1] | binding result [2] | Binder
3 | – | binds | Cort_(1-79/154-401) (domain or fragment, mouse cortactin, UniProt Q60598, residues 1-79, joined directly to residues 154-401; mouse cortactin, UniProt Q60598, residues 154-401; Internal deletion of residues 80-153; fragments ligated through overhangs coding residues 77-79; source: E. coli ArticExpress (DE3), purified (amylose, TEV cleavage, Ni-NTA, size exclusion)) MWKASAGHAVSITQDDGGADDWETDPDFVNDVSEKEQRWGAKTVQGSGHQEHINIHKLRENVFQEHQTLKEKELETGPKYSSGFGGKYGVQADRVDKSAVGFDYQGKTEKHESQKDYSKGFGGKYGIDKDKVDKSAVGFEYQGKTEKHESQKDYVKGFGGKFGVQTDRQDKCALGWDHQEKLQLHESQKDYKTGFGGKFGVQSERQDSSAVGFDYKERLAKHESQQDYAKGFGGKYGVQKDRMDKNASTFEEVVQVPSAYQKTVPIEAVTSKTSNIRANFENLAKEREQEDRRKAEAERAQRMAKERQEQEEARRKLEEQARAKKQT
4 | – | binds | Cort_(1-401) (domain or fragment, mouse cortactin, UniProt Q60598, residues 1-401; source: E. coli ArticExpress (DE3), purified (amylose, TEV cleavage, Ni-NTA, size exclusion)) MWKASAGHAVSITQDDGGADDWETDPDFVNDVSEKEQRWGAKTVQGSGHQEHINIHKLRENVFQEHQTLKEKELETGPKASHGYGGKFGVEQDRMDRSAVGHEYQSKLSKHCSQVDSVRGFGGKFGVQMDRVDQSAVGFEYQGKTEKHASQKDYSSGFGGKYGVQADRVDKSAVGFDYQGKTEKHESQKDYSKGFGGKYGIDKDKVDKSAVGFEYQGKTEKHESQKDYVKGFGGKFGVQTDRQDKCALGWDHQEKLQLHESQKDYKTGFGGKFGVQSERQDSSAVGFDYKERLAKHESQQDYAKGFGGKYGVQKDRMDKNASTFEEVVQVPSAYQKTVPIEAVTSKTSNIRANFENLAKEREQEDRRKAEAERAQRMAKERQEQEEARRKLEEQARAKKQT
